Measured values published in patent US20230270861A1, “Inhibitors of the Artemin Pathway for Treatment of Cancer” (The University of Chicago, priority 2020, published 2023).

How the values were obtained:
[1] = test system: CD8 T cells; assay: In vitro CD8 T cell treatment with artemin; assay type: cell-based, mouse; conditions: 24 hours
Method: (§1) FIGS. 71A-71I. […] (FIGS. 71A-71E) CD8 T cells were purified from WT spleen and treated with recombinant artemin for 24 hours (150 ng/mL for FIGS. 71B, 71C, 71D, and 71E). T proliferation was examined (FIG. 71A), and the indicated effector molecules were analyzed by flow cytometry (FIGS. 71B, 71C, and 71D) and q-PCR (FIG. 71E). (FIGS. 71F-71I) MC38 murine colon cancer tumors were treated with artemin (i.t.), and single cell suspensions of tumors were stained with indicated markers and examined by flow cytometry (FIGS. 71F, 71G, 71H, and 71I).
In vitro testing: CD8 T cell treatment with artemin. CD8 T cells were isolated from spleens of naïve mice. CD8 T cells were cultured with T cell activation beads for 3 days and labeled with DNA dye cellTrace violet, followed by co-culturing with 150 ng/mL recombinant artemin for 24 hours. T cells were then washed and stimulated by stimulation cocktail and protein transport cocktail for 6 hours before being subjected to intracellular antibody staining.

[2] = test system: CD8 T cells and bone marrow derived MDSCs; assay: qPCR of possible artemin receptors in CD8 T cells and MDSCs co-cultured with artemin; assay type: cell-based, mouse; conditions: co-culture with artemin
From the text: (§2) FIGS. 73A-73D. Study of the effects of artemin and radiation on mRNA expression of possible artemin receptors in different immune cells. (FIG. 73A) mRNA level of known GDNF receptors in CD8+ T cells after co-culture with artemin. (FIG. 73B) mRNA level of known GDNF receptors in MDSCs (CD11b+Ly6C+) cells. GFRα1, GFRα3 and NCAM expression in DC (FIG. 73C) and natural killer (NK) cells (FIG. 73D) in tumors responding to artemin or/and radiation treatments. R1, GFRα1; R3, GFRα3.
Quantitative PCR (qPCR). Expression of possible artemin receptors GFRα1 (primers: SEQ ID NOs: 5, 6), GFRα3 (primers: SEQ ID NOs: 7, 8), Syndecan 3 (primers: SEQ ID NOs: 9, 10), NCAM (primers: SEQ ID Nos: 11, 12), and RET (SEQ ID Nos: 13, 14) was analyzed by qPCR in CD8 T cells and bone marrow derived MDSCs during co-culture with artemin.

[3] = test system: MC38 murine colon cancer tumors; assay: In vivo MC38 murine colon cancer treatment with artemin (i.t.), flow cytometry of tumor cells; set-up: species or system mouse
Method: as §1
FIGS. 72A-72C. […] MC38 tumor were digested into single cell suspension and stained with markers that characterize T cells, DCs, and MDSCs. Flow cytometry was performed. […] (FIG. 72B) Changes in CD4 T cells.
In vivo testing: MC38 murine colon cancer treatment with artemin. Established MC3 8 murine colon cancer tumors were treated with artemin by intra-tumoral injection. Tumors were digested into single cell suspension, stimulated and stained with intracellular antibodies. Cells were analyzed by flow cytometry.

[4] = test system: MC38 cells; assay: Colony formation assay of irradiated MC38 cells; assay type: cell-based, mouse; conditions: 0, 1 or 3 Gy; 100 ng/mL artemin
Method: FIG. 40. Colony formation assay of MC38 cells treated with 0, 1, or 3 Gy irradiation. MC38 cells were either co-cultured with 2×10^6 Ter-cells (left) sorted from spleens of tumor-bearing mice, or treated with 100 ng/mL artemin (right). Representative data are shown from three experiments. Data are represented as mean±SD. *p<0.05, **p<0.01, and ***p<0.001.

[5] = test system: LLC tumor; assay: Tumor growth of LLC tumor-bearing mice treated with IR or anti-PD-L1 plus test agent; assay type: in vivo, mouse; conditions: LLC tumor-bearing B6 mice; agent combined with 20 Gy IR or anti-PD-L1
Method: Tumor models and treatments. 1×10^6 MC38, LLC, or B16-SIY tumor cells were subcutaneously injected into the flank of mice. On day 10 after tumor inoculation, tumors were either irradiated with one dose of 20 Gy or mice received sham treatment. For anti-PD-L1 treatment experiments, 200 μg anti-PD-L1 (10F.9G2) or isotype control was given by i.p. every three days for a total of four times starting on day 10 after tumor inoculation. For type I IFN blockade experiments, 200 μg anti-IFNAR1 were intratumorally injected on days 0 and 2 after irradiation. For CD4 or CD8 T cell depletion experiments, 200 μg anti-CD4 or anti-CD8 mAb was delivered four times by i.p. injection every 3 days starting 1 day before therapies. Artemin-neutralizing antibody was delivered i.t. at 1 μg/mouse starting on day of irradiation, every 2 days for 7 doses. For Ter-cell depletion, anti-ter119 was injected i.p. at 20 μg/mouse every 2 days for 4 doses. For Ter-cell or artemin treatment groups, mice were administered 1×10^7 purified Ter cells i.v. every other day for a total of three doses, or mice were treated with 0.5 μg/mouse artemin i.t. every other day starting on day 0 of therapies throughout the studies. For EPO treatment groups, mice were treated with 20 U/mouse EPO i.v. every other day throughout the studies, starting on day 0 of the therapies. IFN-γ was administered through intrasplenic injection on day 15 post tumor implantation at 2 μg/mouse for 1 dose. LOXO-292 was administered by oral gavaging at 100 μg/mouse/day throughout the entire studies, starting on day 0 of the therapies. Spleens were harvested on day 20 or at indicated times post-inoculation for analysis of spleen size or splenic cells. Tumor size was monitored and calculated with the formula for area (length×width).

[6] = test system: MC38-OTI-zsGreen cells; assay: CD8+ T cell mediated killing (apoptosis) of MC38-OTI-zsGreen cells; assay type: cell-based, mouse; conditions: 100 ng/mL artemin for 6 h
Method: FIGS. 41A-41B. (FIG. 41A) Apoptosis of MC38 cells as analyzed by flow cytometry. 1×10^5 MC38-OTI-zsGreen cells were co-cultured with 2×10^5 CD8^+ T cells purified from OTI mice in 96-well U bottomed plates. Tumor cells were either co-cultured with 2×10^5 Ter-cells sorted from spleens of tumor-bearing mice or treated with 100 ng/mL artemin for 6 h. Representative data are shown from three experiments. Data are represented as mean±SD. *p<0.05, **p<0.01 and ***p<0.001. (FIG. 41B) Apoptosis of MC38 cells was analyzed by flow cytometry. 1×10^5 MC38-OTI-zsGreen cells were co-cultured with 2×10^5 CD8+ T cells purified from OTI mice in 96-well U bottom plates. Tumor cells were either co-cultured with 2×10^5 Ter-cells sorted from spleen of tumor-bearing mice or treated with 100 ng/mL artemin (ARTN) for 6 h. Representative data are shown from two or three experiments conducted with 3-5 mice or samples per group.

[7] = test system: Lewis lung carcinoma (LLC) tumors; assay: Flow cytometry of GFRα1, GFRα3 and NCAM in LLC tumors treated with artemin and/or IR; assay type: in vivo, mouse
From the text: as §2
Radiation (IR) treatment analysis. We treated established Lewis lung carcinoma (LLC) tumors with control, artemin, IR, and artemin+IR (20 Gy IR). Flow cytometry with staining of GFRα1, GFRα3 and NCAM receptors was performed.

B1: artemin: Recombinant mouse artemin (1085-AR) from R&D Systems; neurotropic factor of the GDNF family (protein)
chain: AGTRSSRARTTDARGCRLRSQLVPVSALGLGHSSDELIRFRFCSGSCRRARSQHDLSLASLLGAGALRSPPGSRPISQPCCRPTRYEAVSFMDVNSTWRTVDHLSATACGCLG
- CD8 T cell proliferation ([1]; 200 ng/mL): reduced CD8 T cell proliferation
- Production of IFN-γ, granzyme B and TNFα in T cells (protein and RNA level) [1]: decreases in production
- GFRα1 mRNA in MDSC cells [2]: induction of GFRα1
- GFRα3 mRNA in CD8 T cells [2]: Induction of GFRα3
- CD4 T helper cell numbers [3]: not significantly changed
- PD-L1 expression on dendritic cells (CD11C+) and MDSCs (CD11b+Ly6C+) [3]: induced PD-L1 expression
- Treg percentage in CD4 T cells [3]: significantly increased
- Frequency of total CD8 T cell among CD45+ cells ([3]; artemin i.t.): did not alter frequency
- IFN-γ production in intratumoral T cells ([3]; artemin i.t.): not significant
- Production of granzyme B and TNFα proteins in intratumoral T cells ([3]; artemin i.t.): significantly reduced
- Expression of exhaustion markers PD-1, LAG3 and TIM3 ([3]; intratumoral T cells): did not change the expression
- Radio-resistance of MC38 tumor cells (colony formation) [4]: increased the radio-resistance
- Tumor growth: influence on the therapeutic effect of IR and PD-L1 blockade [5]: diminished the anti-tumor effects of IR and PD-L1 blockade
- CD8+ T cell mediated killing of tumor cells [6]: impaired
- GFRα3 expression on NK cells [7]: induces GFRα3 expression
